Common to all, as to assay: cell-based or functional assay
Test [1] deals with β1 integrin (human) (UniProt P05556).
Test [2] addresses α1 integrin (human) (UniProt P56199).
Test [3] addresses αv integrin subunit (rat hippocampus) (rat).
The target of test [4] is αvβ1 integrin (human) (UniProt P06756).
For test [5], the target named is α2 integrin (human) (UniProt P17301).
For test [6], the target named is α2β1 integrin (human) (UniProt P17301).
Test [7] concerns the target α6 integrin (human) (UniProt P23229).
Test [8] has as its target α9 integrin (human) (UniProt Q13797).
Test [9] concerns the target α5 integrin (human) (UniProt P08648).
Sequence of UniProt P08648 (P08648 42-1049): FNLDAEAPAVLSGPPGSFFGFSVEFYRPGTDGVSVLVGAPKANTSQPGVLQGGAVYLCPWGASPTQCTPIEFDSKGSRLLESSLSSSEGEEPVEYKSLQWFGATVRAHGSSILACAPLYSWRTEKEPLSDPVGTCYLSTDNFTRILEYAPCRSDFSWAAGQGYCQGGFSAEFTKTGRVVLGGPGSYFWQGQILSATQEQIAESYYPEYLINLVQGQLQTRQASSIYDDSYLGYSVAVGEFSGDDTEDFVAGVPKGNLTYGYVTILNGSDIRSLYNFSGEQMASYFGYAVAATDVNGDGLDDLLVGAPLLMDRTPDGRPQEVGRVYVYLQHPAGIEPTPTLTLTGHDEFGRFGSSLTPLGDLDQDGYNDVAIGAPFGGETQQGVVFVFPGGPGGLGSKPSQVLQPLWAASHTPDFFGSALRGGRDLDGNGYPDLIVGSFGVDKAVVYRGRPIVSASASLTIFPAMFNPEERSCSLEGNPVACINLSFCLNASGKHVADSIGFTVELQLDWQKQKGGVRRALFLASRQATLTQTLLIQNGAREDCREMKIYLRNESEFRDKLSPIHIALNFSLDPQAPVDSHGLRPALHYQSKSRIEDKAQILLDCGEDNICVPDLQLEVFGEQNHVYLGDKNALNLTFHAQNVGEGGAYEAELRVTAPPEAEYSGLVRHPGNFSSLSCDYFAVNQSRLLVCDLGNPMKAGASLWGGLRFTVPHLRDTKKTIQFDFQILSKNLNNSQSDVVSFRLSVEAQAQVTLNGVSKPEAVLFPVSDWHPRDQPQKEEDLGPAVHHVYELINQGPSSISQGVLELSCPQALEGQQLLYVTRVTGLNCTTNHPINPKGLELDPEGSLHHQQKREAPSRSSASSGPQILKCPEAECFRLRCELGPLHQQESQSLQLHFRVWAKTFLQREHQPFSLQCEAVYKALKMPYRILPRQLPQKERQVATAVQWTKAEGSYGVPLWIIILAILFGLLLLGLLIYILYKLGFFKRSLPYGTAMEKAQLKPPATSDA

Sequence of UniProt P05556 (P05556 21-798): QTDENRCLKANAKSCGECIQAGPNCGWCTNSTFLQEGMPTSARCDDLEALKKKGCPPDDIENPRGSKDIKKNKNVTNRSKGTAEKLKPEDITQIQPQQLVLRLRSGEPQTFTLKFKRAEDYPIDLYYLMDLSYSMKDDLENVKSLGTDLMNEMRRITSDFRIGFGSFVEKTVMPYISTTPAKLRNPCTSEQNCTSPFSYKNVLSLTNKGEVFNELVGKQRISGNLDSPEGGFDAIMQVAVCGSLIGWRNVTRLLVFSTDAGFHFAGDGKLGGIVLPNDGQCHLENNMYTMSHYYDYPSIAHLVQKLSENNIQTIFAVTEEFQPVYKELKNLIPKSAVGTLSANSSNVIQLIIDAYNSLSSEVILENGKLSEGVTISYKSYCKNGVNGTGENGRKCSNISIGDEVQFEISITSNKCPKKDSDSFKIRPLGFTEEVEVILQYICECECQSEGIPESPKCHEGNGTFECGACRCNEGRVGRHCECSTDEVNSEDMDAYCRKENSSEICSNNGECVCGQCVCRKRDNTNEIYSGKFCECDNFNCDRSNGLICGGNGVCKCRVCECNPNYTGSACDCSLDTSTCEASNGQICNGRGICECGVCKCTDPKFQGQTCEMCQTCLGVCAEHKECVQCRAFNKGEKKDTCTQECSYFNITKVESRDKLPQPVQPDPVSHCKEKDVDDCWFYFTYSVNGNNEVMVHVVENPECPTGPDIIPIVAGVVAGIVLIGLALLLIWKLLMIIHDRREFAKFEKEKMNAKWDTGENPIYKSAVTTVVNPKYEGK
Sequence of UniProt P23229 (P23229 24-1130): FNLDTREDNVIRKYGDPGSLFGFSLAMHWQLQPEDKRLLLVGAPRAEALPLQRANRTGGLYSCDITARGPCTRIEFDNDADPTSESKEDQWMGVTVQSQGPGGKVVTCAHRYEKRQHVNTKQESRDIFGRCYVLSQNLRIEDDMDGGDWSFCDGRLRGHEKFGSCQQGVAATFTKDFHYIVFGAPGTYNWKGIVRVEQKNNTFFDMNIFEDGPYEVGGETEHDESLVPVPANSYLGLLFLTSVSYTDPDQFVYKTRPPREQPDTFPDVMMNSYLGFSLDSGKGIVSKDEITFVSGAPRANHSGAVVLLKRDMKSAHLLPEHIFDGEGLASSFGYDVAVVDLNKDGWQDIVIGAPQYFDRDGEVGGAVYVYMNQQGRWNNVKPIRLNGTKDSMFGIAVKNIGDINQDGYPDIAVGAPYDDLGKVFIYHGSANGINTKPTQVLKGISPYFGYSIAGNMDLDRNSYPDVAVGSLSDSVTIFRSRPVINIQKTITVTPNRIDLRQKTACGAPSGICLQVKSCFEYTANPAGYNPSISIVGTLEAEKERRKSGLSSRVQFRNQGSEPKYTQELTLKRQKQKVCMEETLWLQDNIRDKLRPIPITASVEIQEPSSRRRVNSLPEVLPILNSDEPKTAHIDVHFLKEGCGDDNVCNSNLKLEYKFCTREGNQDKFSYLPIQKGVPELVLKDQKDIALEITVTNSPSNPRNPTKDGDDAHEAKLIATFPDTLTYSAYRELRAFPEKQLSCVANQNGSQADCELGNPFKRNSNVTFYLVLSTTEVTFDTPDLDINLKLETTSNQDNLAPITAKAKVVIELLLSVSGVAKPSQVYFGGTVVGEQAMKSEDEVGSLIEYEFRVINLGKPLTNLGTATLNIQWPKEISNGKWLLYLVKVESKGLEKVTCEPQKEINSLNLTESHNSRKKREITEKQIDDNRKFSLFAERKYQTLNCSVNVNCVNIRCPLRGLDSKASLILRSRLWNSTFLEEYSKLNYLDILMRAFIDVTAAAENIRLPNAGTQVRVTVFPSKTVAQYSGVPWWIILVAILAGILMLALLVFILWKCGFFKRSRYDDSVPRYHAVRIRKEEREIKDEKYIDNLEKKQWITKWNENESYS
Sequence of UniProt Q13797 (Q13797 30-1035): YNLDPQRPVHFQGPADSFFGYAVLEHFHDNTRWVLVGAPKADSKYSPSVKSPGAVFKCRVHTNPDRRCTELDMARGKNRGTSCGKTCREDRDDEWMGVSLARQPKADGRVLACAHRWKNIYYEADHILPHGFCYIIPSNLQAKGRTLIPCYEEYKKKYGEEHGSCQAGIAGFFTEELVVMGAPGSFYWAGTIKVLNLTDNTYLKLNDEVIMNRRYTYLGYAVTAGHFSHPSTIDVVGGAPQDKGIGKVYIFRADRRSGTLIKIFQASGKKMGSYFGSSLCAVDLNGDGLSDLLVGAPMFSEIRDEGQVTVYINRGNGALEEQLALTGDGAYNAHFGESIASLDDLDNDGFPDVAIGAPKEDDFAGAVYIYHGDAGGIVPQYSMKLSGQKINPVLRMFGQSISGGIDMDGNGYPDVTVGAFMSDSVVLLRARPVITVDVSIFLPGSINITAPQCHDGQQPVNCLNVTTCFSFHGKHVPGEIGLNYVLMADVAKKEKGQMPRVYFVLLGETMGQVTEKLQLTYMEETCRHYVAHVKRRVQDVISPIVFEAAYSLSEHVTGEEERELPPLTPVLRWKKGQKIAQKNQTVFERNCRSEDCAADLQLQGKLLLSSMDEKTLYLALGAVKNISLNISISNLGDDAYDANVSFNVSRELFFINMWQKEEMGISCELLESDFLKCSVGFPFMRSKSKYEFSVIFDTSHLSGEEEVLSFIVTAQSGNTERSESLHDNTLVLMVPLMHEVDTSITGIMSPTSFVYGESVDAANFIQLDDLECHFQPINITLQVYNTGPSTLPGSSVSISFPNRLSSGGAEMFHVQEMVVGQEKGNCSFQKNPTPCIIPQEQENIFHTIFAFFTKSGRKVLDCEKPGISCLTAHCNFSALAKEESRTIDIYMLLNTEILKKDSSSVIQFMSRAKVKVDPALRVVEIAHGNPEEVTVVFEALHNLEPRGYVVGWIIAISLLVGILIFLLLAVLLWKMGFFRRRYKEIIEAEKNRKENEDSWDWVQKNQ
Sequence of UniProt P06756 (P06756 31-1048, chain 1 of 2): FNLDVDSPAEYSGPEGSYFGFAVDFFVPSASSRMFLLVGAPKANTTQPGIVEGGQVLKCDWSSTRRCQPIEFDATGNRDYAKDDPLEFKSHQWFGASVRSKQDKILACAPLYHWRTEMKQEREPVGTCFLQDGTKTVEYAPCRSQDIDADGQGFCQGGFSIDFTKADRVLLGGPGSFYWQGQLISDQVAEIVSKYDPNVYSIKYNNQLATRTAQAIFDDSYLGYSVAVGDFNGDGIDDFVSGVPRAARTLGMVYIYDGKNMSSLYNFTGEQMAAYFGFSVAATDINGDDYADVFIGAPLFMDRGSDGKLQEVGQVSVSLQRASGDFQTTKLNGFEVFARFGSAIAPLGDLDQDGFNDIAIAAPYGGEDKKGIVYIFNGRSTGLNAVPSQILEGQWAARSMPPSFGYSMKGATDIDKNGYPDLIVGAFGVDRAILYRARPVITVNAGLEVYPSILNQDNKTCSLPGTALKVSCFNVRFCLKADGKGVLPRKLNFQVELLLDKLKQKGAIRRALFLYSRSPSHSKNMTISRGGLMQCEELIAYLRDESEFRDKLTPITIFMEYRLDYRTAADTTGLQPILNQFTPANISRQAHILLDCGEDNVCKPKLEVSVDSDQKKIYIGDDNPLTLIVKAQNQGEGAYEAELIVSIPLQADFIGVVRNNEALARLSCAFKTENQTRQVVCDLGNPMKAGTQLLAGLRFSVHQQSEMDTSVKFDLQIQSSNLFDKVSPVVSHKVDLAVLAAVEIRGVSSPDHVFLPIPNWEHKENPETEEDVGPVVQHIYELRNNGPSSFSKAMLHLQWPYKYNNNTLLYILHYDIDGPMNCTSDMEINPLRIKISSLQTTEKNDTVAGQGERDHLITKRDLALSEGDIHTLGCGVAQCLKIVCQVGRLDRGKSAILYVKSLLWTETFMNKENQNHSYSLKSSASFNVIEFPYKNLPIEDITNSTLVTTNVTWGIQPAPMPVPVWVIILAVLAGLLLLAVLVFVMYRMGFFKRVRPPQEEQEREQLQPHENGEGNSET
Sequence of UniProt P06756 (P05556 21-798, chain 2 of 2, further chain): as the sequence (P05556 21-798) above

With TS2/16 (activating) (antibody), in test [1], the Maximal inhibition of toxicity (%) is 0%.
As for TS2/7 (antibody), the Maximal inhibition of toxicity (%) in [2] came out at 5%.
As for Superfibronectin (ligand), the LTP in the presence of Aβ plus superfibronectin, dentate gyrus in vitro (% baseline) in [3] amounted to 147%. The Maximal inhibition of toxicity (%) in test [4] worked out at 100%.
In test [5], Gi9 (antibody) yielded a Maximal inhibition of toxicity (%) of 100%.
The molecule Laminin (ligand) displayed a Maximal inhibition of toxicity (%) in [6] of 20%.
Consider GoH3 (antibody), for which the Maximal inhibition of toxicity (%) in test [7] turned out to be 40%.
In test [1], AIIB2 (antibody) returned a Maximal inhibition of toxicity (%) of 100%.
In the case of “echistatin (from UniProt P17347 131-179) (peptide)”, the LTP in the presence of Aβ plus echistatin, dentate gyrus in vitro (% baseline) in test [3] amounted to 143%.
For 17E6 (antibody), in test [3], the LTP in the presence of Aβ plus antibody, CA1 in vivo (% baseline) stood at 135% and the LTP in the presence of Aβ plus antibody, dentate gyrus in vitro (% baseline) was determined as 153%.
As for Y9A2 (antibody), the Maximal inhibition of toxicity (%) in test [8] was determined as 0%.
As for SAM1 (antibody), the Maximal inhibition of toxicity (%) in [9] was 5%.
On the same count and under the same terms, under P1D6 (antibody) stands 5%.

B1: MAB1998 (antibody, from another filing, V domains shown)
VH: QVQLKESGPGLVAPSQSLSITCTVSGFSLTNYGIHWVRQPPGKGLEWLGVIWARGFTNYNSALMSRLIITKDNSQSQVFLKMNSLQPDDSATYFCARANDGVYYAMDYWGQGTSVTVSS
VL: QFVLTQSPAFLSASPGEKVTMTCSANSSVNYIHWYQQKSGTSPKKWIYDTSKLASGVPVRFSGSGSGTSYSLTISSMETEDAATYYCQQWTTNPLTFGAGTRVELK
In test [5], B1 showed a Maximal inhibition of toxicity (%) of 25%.

For the origin of these results see US20080193444A1.
